Results on 18 sequences are retold here after the DeepSol protein solubility set.

This series is described as follows: soluble on expression in E. coli; label from the status in PepcDB or PDB records.
With “MSLHLKVFAKPKITYVENQTAMELEEQVTLTCEASGDPIPSITWRTSTRNISSEEKASWTRPEKQETLDGHMVVRSHARVSSLTLKSIQYTDAGEYVCTASNTIGQDSQSMYLEVQYAPKLQGPVAVYTWEGNQVNITCEVFAYPSATISWFRDGQLLPSSNYSNIKIYNTPSASYLEVTPDSENDFGNYNCTAVNRIGQESLEFVLVQADTPSSPSIDQVEPYSSTAQVQFDEPEATGGVPILKYKAEWRAMGEEVWHSKWYDAKEASMEGIVTIVGLKPETTYAVRLAALNGKGLGEISAASEFKTQPVREPSAEGHHHHHH”, the “soluble on expression in E. coli” value was “not soluble”.

On to “MSLHPVQHSAREQVNAQVLSAASQKIESLAQQRQWHDYRYTFKVYISSQIATAAPCATTPGVTLTSPVDIALNRMNFTVSCPQSWQMNVAVRPDVLVPVVMAKSLVARDTPLTANDVELKPYNVSAQRREVLMELDDAIGLSSKHALQPGKPITKEELVSPVLVGRDQPVMIVYQSAGITASMPGVALKNGRKGEMVKVRNASSQRVISAMVAESGVVTTVGAEEGHHHHHH”, for which the “soluble on expression in E. coli” value is “soluble”.

Regarding “MSLHSPGKAFRAALTKENPLQIVGTINANHALLAQRAGYQAIYLSGGGVAAGSLGLPDLGISTLDDVLTDIRRITDVCSLPLLVDADIGFGSSAFNVARTVKSMIKAGAAGLHIEDQVGAKRCGHRPNKAIVSKEEMVDRIRAAVDAKTDPDFVIMARTDALAVEGLDAAIERAQAYVEAGAEMLFPEAITELAMYRQFADAVQVPILANITEFGATPLFTTDELRSAHVAMALYPLSAFRAMNRAAEHVYNVLRQEGTQKSVIDTMQTRNELYESINYYQYEEKLDNLFARSQVK”, the “soluble on expression in E. coli” value was “soluble”.

In the case of “MSLIARDAHEGQFRSSGEPYITHPVAVASIIAQLHLDHEAVMAALLHDVIEDTPYTEEQLKEEFGASVAEIVDGVSKLDKLKFRTRQEAQVENFRKMILAMTRDIRVVLIKLADRTHNMRTLGSLRPDKRRRIAKETLEIYCPLAHRLGIEHIKNELEDLSFQAMHPHRYEVLKKLVDVARSNRQDLIERISQEIKVRLENSGIFARVWGREKHLYKIYQKMRIKDQEFHSIMDIYAFRVIVKNVDDCYRVLGQMHNLYKPRPGRVKDYIAVPKANGYQSLQTSMIGPKGVPVEVHIHTEDMEQVAEMGITAHWVYKENGKNDSTTAQIRVQRWLQSLVEIQQSVGNSFEFIENVKSEFFPKEIYVFTPKGRIVELPMGATAVDFAYAVHSDVGNTCVGVTVEHKPYPLSKALESGQTVNIITDPNAHPEVAWLNFVVTARAKTRIRHYLKQRCEEDAVKLGEVELNVALQPHNLGDFSIQQIRTVLDALALSSLDELLREIGLGNQSASMIAHQFVGVPLESANTKNLEFESKILTIAPMQVGKTQFAQCCHPILGDPIVGCCTEKNTVVVHHQHCASLKNACRQSLAKWDNVQSAVNFEAELQIEILNEQNALLSLMTAISASESSLQNIWTEELENNLLLVILQVCVKDIKHLANIVHRIKGITGVVNVKRNINELEGHHHHHH”, the “soluble on expression in E. coli” value was “not soluble”.

Turning to “MSLIDIHSHIIPNIDDGSKSLEMSLEMLKRAEESGTKKIIATPHFFKGYWTENYNSVKDKVKELNKLAKENNLNIEIYPGQEVFFNNYILEDFKLGDIGTLGESRYMLIEFPMDKIYFQKAIDEIYELKIKGITPVIAHPERYVDFINNPEEINQFIDEGYLFQLNGGSLTGLFGKEVKKTAELFLENNLYSFIGSDAHSNGNRNTSLKEACEVANSISRGASRRFEANGLALLNNEKIVFQGEGHHHHHH”, the “soluble on expression in E. coli” value was “soluble”.

“MSLIEDCLRSYRFIAIDTEFPSTLRETTQHATDEERYMDMSFSVDRAKLIQLGLTLFDINGRIGGTWEINFSDFGVDDARNEKSIEFLRRNGLDLRKIREEGIRIEGFFSEMFWMLKKTRRNITWVTFHGSYDIAYLLKGFTGEALPVTSERFSKAVARVLGSVYDLKVMAGRCEGLSSRLGLETLAHEFGLNRVGTAHHAGSNNELTAMVFAKVLSPFPLFLRFGSLELRTIESEAIV”: the “soluble on expression in E. coli” value is on record as “soluble”.

“MSLIEEEVLKIIKPTEEDKKGIEKVLEIIRERLNKLDFEVEGSFRKGTWLRQDTDIDVFVFYPKDVGKEYLERNALNDIINRIKDLDYTLAYAEHPYVIVNINNVEVDIVPALRVESGDKAITAVDRTPFHTKYVTSHLDERGKDEVRLLKRFMKGIGVYGAELKVQGFSGYATELLIIYYGNFRKVLEEASKWKHPIKIELTKPMKIFSEPLIIPDPVDPKRNVTAAVSLKNIATFSIAAKYYLKNPSIEFFFPSKKVEEKVKGDVLILRLNLDEKSSEDIVWGQIKRSVNKIERALKQYGFRVIDVQAWGDTNNITIAVQLESKNIGQYYLNIGPQYYSGTIEDFIQKNDNIWVGEDGRLYSIKERKEYDAETIAKKNIVLKVKYNIESYWLQNTEDQQIMKFLRKTPTWLKEGHHHHHH”: the “soluble on expression in E. coli” value is reported as “not soluble”.

Take “MSLIEELFDQMSKGNLLLIDMTYDMFNGMQTYIGDPPFKHEYFRKGNKYGEVTLSTVYMGLHSGTHIDLPLHFVPNGESVEKFNIIQFIGYGNVLDLSYKKLGEPISSNDLKKFDDRIKENYVVMLYTGFSATRGKEDFLYNWPYLDSNGADYLVSKKIRAVGIESMSIAGWAGKEYPPRTNWDEVVYVHHKLLSNDIIILESVNNMKKVLEECKNGEALFFYAPLKIVGAEGGPTRLFAICEKREGHHHHHH”: the “soluble on expression in E. coli” value is given as “not soluble”.

For the sequence “MSLIKLFLLKLYWAHFSTKQIHQFLMAYPNVIKEEGRKKDSYLCEWVNREENVHLLRKYYAFIKLDHNDIIKELQKLKVSYITYMDSEYPVLLKEIYQFPLLLFYKGNIKLINNMHHLAVVGARDSTSYTQQSLEFLLSNDKSKYLTIVSGLAQGADAMAHQIALKYNLPTIAVLAFGHQTHYPKSTLALRNKIEEKGLVISEYPPHTPIAKYRFPERNRIISGLSKGVLITEAKEQSGSHITIDFALEQNRNVYVLPGSMFNPMTKGNLLRIQEGAKVVLNANDIFEDYYIEGHHHHHH”, the “soluble on expression in E. coli” value is “soluble”.

Turning to “MSLIKMIALDLDETLLNTDKTISEENATALRQLHEAGIKIVLCTGRPINAIWHYLEQLGLTTDDDYTITFNGALVIQNSTKEALAQSGLSRNDFEPLHAFAAANHYPMDVLDFDQVYPIADLTPSVYEQMLKAPMKFIPTAFADLPDQLFSKAVMATDAAILDQVVAKLTPELTKLYHVVRSQPKILEFLAADMDKAVGLGQLLTHFGWDFSDLMAFGDAENDLGMIKAAGDGVAMQNGQPAVKAAANHQTPVDNNHAGVAAYLQHVFPELLGEGHHHHHH”, the “soluble on expression in E. coli” value is recorded as “soluble”.

Consider “MSLIKVLIVEDDPMVAMLNAHYLEQVGGFELVQAVNSVKSAIEVLEESRIDLVLLDIFMPEETGFELLMYIRNQEKEIDIMMISAVHDMGSIKKALQYGVVDYLIKPFTFERFKEALTIYREKLTFMKEQQKISQSELDSLILQKEKREPTVTKELPKGLTKQTLQLIWQKIELLNGRAFTTDEMSQLVGISRVSIRKYVMFLTDIGVLENEMMYQHVGRPVSKLRCVDQKKIEFYVEGHHHHHH”, for which the “soluble on expression in E. coli” value is “soluble”.

With “MSLILPPIIAASLPPPPGPHAVGYTFLVHPPLSPFSHSSPTLKSTGKPAFQIEEIGYCLFYPGLPEGKRGKEWVSWVPDPFWGVIRGYERFLGGKGGVSWLVKPLGYIAGRLQMPLHPRAPLKPTDKPYPLLIFSHGLAGTRHTYSQYCAALASEGYVVLAVEHRDGSGPAVVLPPEGESKESRVLYYTGVNDISWAEGEEHPVTHARTLQLDIRTREVYEAYHSFKRLLSHEGDLSIKIEGLEGGHSFGGGTILHLLQSPPPSTLLPSLPAKQAISLDPWLEPLPAPSDILQTPLPSSLPPTLVINSAGFTEWPEHWEKLVEIMKGKGILITMIGIGHQAFSDFPLLSPRGYSHAHSMILKVHELSTAFLNKKLLSGAALAGKTPDKGDYEKDEDGVKIKGKAAMKDGDVLLHFADREEGHHHHHH”, the “soluble on expression in E. coli” value was “soluble”.

“MSLILTLDPQVAGASGDMVLGALIAVGADPNRLEEVVHEVSSLGHEVDVHVHEIQKRGIRAVRVEVDAEGDLRDPDELREAVKTVAENVLEDRWRELPELALKYLLRAEERVHGDLCHLHELGSSDTVVDLVGTAALLEDLNPKASEVLPPNVGSGTVETEHGRLPVPAPAVVEVLSEWDVGIVREGEGELLTPTGAALLRTIDELLPDPPPPYRVKRQGFGAGTKDLPDRPNVLRALICEPGGSGEHVRIVETSVDDVDGEAVGELIEAVLQLEGVHDVEVLHGFGKKGRPRFVIRVVTEDRPGIEREVFRELFRWTGTLGARVYRCTRVTADRRIVDVDGIRVKVSRFEDVHHAKPEWEDVRRKVDRESAPLTRARLVGDLRKRYEGDGEDGAGDEGHHHHHH”: the “soluble on expression in E. coli” value is listed as “soluble”.

On to “MSLINAGITTVGEFHYVHHSEQKFDLDQLVIQAAIDAGIRIVLLQTLYERAGFDSPAVHPVQERFIASYEDFIGNLEKLRKEKTHERVQIGVAAHSARAVPFENIKKLFEYASEHKIPFHIHLEEQPKEIFDCQKFIGQKQGPSDLILSKMHLNEYFTAVHSTFTPANNMLLFSKLGANVSICPCTEGYLGDGIPRINESLKISFGTDCNNRICFLEEMRWACFSQQMLNNSRSVCGLSPEKLLLCATIDGARALSLTSKTGSLEVGKYFDAISFSLDSPLLENSLADTLIDSLVLSAGNREISNVFVSGVDRKTEGHHHHHH”, for which the “soluble on expression in E. coli” value is reported as “not soluble”.

On to “MSLIVLKFGGSSIKYDFEEATNLALSLFEDDAVIVVVSAIKGITDKLILYSQTLDKTIATKIASEYVSFAKSHGIDPVILKPYLDELFNLPDLPEEALRDYILSLGEVLSAVIFSASIGGKFVPSWDIFEAEGNFGNAFIDIKSSKKKFKRVFEVLEEGYIPVIPGFTAGKDGYILTLGRGGSDYSGVAAGVLGKAKLVAIMSDVEGIYTADPKLVPSARLIPYVSYDEIIISSKHGMRALQWKAAELAKEYKIPVLFGRTRNWRMGTLMSERSSGMPLMTYKDGLLLVNVTEEIKYPIIAEGPFWKLYKVSQEEGIHLMRELHTKLFQPSFIQYSVYKSSENGQKTQEFNEKISIEQGENRKIYYSEEEVNLPGEGHHHHHH”, for which the “soluble on expression in E. coli” value is “soluble”.

As for “MSLIYAQILAGGKGTRMGNVSMPKQFLPLNGKPIIVHTVEKFILNTRFDKILISSPKEWMNHAEDNIKKYISDDRIVVIEGGEDRNETIMNGIRFVEKTYGLTDDDIIVTHDAVRPFLTHRIIEENIDAALETGAVDTVIEALDTIVESSNHEVITDIPVRDHMYQGQTPQSFNMKKVFNHYQNLTPEKKQILTDACKICLLAGDDVKLVKGEIFNIKITTPYDLKVANAIIQERIANEGHHHHHH”, the “soluble on expression in E. coli” value is “soluble”.

“MSLIYLLNETPFEGVENLILNEIVFYDFSVDLSLYDALICTSKNALKALQHAKITLNFKLNLYAVGQSTAQYAKNLGFKKIKIPSKAYGKDLFLEFKEELKMQKCLYLRAKNIVSTLNLDLKNVGVDLDEMIVYENVFKKGDKKLIHPAIFIFTSPLSVENFLKFYSLKEEDKVVVIGQSTAKKLLNFKNLYICENQSLLNCVKLAKTLVEGHHHHHH”: the “soluble on expression in E. coli” value is given as “not soluble”.

For “MSLKAAQYAGNKSFNVVDGAKVPPAEGEVCLQVGYTGICGTDMHIYHGVMDQRVSIPQIIGHEMSGTVVEVGAGVTDYTVGDRVVVRPLDYCGDCPACNAGHSHVCHNLKFMGIDSPGAFQSYWTVKARTLHALPDNVSLKQGALIEPLSVACHDVARTRLQAGEKALVIGGGPIGQLVALVAKSVGAEVMISEVSEARLKFAAERGIKTVNPVTDDIEAVVKEWTGGKGADAVFEVSGVAAAVETMTKVAAVRGRICMVAIHSQKPQVDLFQFFWKELELLGARVYESADFEHAIELVASGKIDVDSFISSVTSLNDIGTAFASMDNNPAGMKALVECNEGHHHHHH”, the “soluble on expression in E. coli” value was “soluble”.
